Patent US20250289896A1 (ANALYTICAL BIOSCIENCES SHANGHAI, published 2025)
Numbering of substitutions follows the chain as printed. Numbers in names are those of the source.

T1: mCCR8 (UniProt P56484 1-353, limits assumed)
T1 construct: whole, on cells; also called 293T-mCCR8
T1 sequence (looked up): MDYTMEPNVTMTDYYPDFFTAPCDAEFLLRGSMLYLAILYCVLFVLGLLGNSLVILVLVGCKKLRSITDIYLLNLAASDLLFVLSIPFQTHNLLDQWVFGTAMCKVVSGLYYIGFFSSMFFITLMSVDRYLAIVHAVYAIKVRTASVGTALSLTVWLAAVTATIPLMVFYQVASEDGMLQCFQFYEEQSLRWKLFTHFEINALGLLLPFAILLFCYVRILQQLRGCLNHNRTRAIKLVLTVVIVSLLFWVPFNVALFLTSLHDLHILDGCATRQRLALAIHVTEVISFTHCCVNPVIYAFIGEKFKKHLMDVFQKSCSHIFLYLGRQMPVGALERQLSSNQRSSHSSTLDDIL

B1: ABC527 (antibody, human IgG1, kappa, V domains shown)
VH: EVQLVESGGGVVQPGRSLRLSCAASGFPFSFYGMAWVRQAPGKGLEWVASISYDGSDTYYRDSVKGRFTISRDNSKNTLYLQMNSLRAEDTAVYYCAKTSGYGSFDYWGQGTLVTVSS
VL: DIVMTQTPLSLSVTPGQPASISCRSSRSLVHRNGDTYLHWYLQKPGQSPQLLIYRVSNRFAGVPDRFSGSGSGTDFTLKISRVEAEDVGVYYCLQGTHLPPTFGQGTKLEIKR
B2: ABC531 (antibody, human IgG1, kappa, V domains shown)
VH: EVQLVESGGGVVQPGGSLRLSCAASGFTFSNYGMHWIRQAPGKGLEWIAMIYSDSSKMFYTDTVKGRFTISRDNSKNTLYLQMNSLRAEDTAVYYCAARDYGYKGAHYYVMDAWGQGTTVTVSS
VL: DIQMTQSPSSLSASVGDRVTITCKSSQNINRYLNWYQQKPGKAPKLLIYNANNLQTGIPSRFSGSGSGTDFTFTISSLQPEDIATYYCLQHKSWPYTFGQGTKLEIKR
B3: ABC819 (antibody, human IgG1, kappa, V domains shown)
VH: EVQLVESGGGLMQPRRSLKLSCAASGFPFSDYNMAWVRQAPKKGLEWVASITYAGTKTYYGDSVKGRFTISRDDAKSTLYLQMNSLRSEDTATYYCARQDLYYGRNQYWYLDFWGPGTMVTVSS
VL: DIVMTQSPTSMSKSVGDRVTMSCKASQNVGSNVDWYQQKTGQSPKLLIYKTSSRFTGVPDRFTGSGSRTDFTFTISSMQAEDLALYYCVQSNSYPYTFGAGTKLELRT
B4: ABC815 (antibody, human IgG1, kappa, V domains shown)
VH: VQLVESGGGLVQPGRSLKLSCAASGFTFSNYDMAWVRQVPTKGLEWVASVSPSAGTTYYRDSVKGRFTVSRDIAKSSLYLQMDSLRSEDTATYYCARHMIYRGYNYAVSYYVMDVWGQGASVTVSS
VL: IQLTQSPSLLSASVGDRVTLTCKGSQNINSYLAWYQQKLGEAPKLLIYNTNSLQTGIPSRFSGSGSGTDYTLTISSLQPEDVATYFCYQYNNGYTWTFGGGTKLELKR
B5: ABC816 (antibody, human IgG1, kappa, V domains shown)
VH: AVQLVESGGGLVQPKESLKISCAASGFTFSNAAMYWVRQAPGKGLEWVARIRTKPNNYATYYADSVKGRFTISRDDSKSMVYLQMDNLKTEDTAMYYCTAAVYSSYGYFDYWGQGVMVTVSS
VL: DIQMTQSPASLSASLEEIVTITCQASQNNGNWLAWYQQKPGKSPQLLIYGTTNLADGVPSRFSGSRSGTQYSLKISRLQVEDIGIYYCQQASSTPWTFGGGTKLELKR
B6: ABC820 (antibody, human IgG1, kappa, V domains shown)
VH: EVQLVESGGGLVQPGRSLKLSCAASGFTFSDYYMAWVRQAPKKGLEWVASISYEGRSTYYGDSVKGRFTISRDDEKSILYLQMSGPRSEDTATYYCARQDLYYGRNPSWFLDFWGPGTMVTVSS
VL: IVMTQSPTSMSISVGGRVTMNCKASQNVGSNVDWFQQKTGQSPKLLIYKTTSRYTGVPDRFTGSGSKTDFTFTISNMQAEDLAVYYCLQSNSFPYTFGAGTKLELKR
B7: ABC821 (antibody, human IgG1, kappa, V domains shown)
VH: EVQLVESGGGLVQPGRSLKLSCVASGFTFNYYWMTWIRQAPGKGLEWVASITNTGDTTYYPDSVKGRFTISRHNAKSTLYLQMNSLRSEDTATYYCSRGDGGSSFWIAYWGQGTLVTVSS
VL: DVVMTQTPVSLPVSLGGQASISCRSSQSLVHRSGNTYLHWYLQKPGQSPQLLIYRVSNRFSGGPDRFSGSGSGTTFTLKISRVEPEDLGDYYCLQTTHFPPTFGSGTKLEIKR
B8: ABC137-H2.hu12.IgG1.SDIE (antibody, V domains shown)
VH: EVQLVESGGGLVQPGGSLRLSCAASGFPFNTFAMNWVRQAPGKGLEWLARIRSKSNNYATYYADSVKDRFTISRDNAKRSLYLQMNSLRAEDTAVYYCVRGKENNYGYAMDYWGQGTTVTVSS
VL: DIVMTQSPLSLPVTPGEPASISCRSSKSLLHSNGNTYLYWFLQKPGQSPQLLIYRMSNLASGVPDRFSGSGSGTDFTLKISRVEAEDVGVYYCMQHVEYPFTFGGGTKLEIKR
notes: Parental clone ABC025.H2G.SDIE; IgG1 with SDIE mutations
B9: H2C (antibody, human IgG1, kappa, V domains shown)
VH: B8 VH with K78R
VL: B8 VL with K27Q, V97L, G105Q
B10: ABC050-B1.hu13.IgG1.SDIE (antibody, V domains shown)
VH: EVQLVESGGGLVQPGGSLKLSCAASGFTFNTYAMNWVRQASGKGLEWVARIRSKSNNYATYYADSVKDRFTISRDDSKNTLYLQMNSLKTEDTAVYYCVREVRRDYALDQWGQGTMVTVSS
VL: B8 VL with N33S
notes: IgG1 with SDIE mutations, by its name
B11: H2B (antibody, human IgG1, kappa, V domains shown)
VH: B8 VH
VL: B8 VL with K27Q, V97L, G105Q
B12: ABC049-B1.hu12.IgG1.SDIE (antibody, V domains shown)
VH: B10 VH
VL: B8 VL with N33Q
notes: as for B10
B13: H2I (antibody, human IgG1, kappa, V domains shown)
VH: B8 VH with K78R
VL: B8 VL with K27Q, G34A, V97L, G105Q
B14: H2A (antibody, human IgG1, kappa, V domains shown)
VH: B8 VH with R79N
VL: B8 VL with K27Q, V97L, G105Q
B15: ABC051-B1.hu14.IgG1.SDIE (antibody, V domains shown)
VH: B10 VH
VL: B8 VL with G34A
notes: as for B10
B16: ABC523 (antibody, human IgG1, kappa, V domains shown)
VH: EVKLVESGGGLVQPGNSLTLSCVASGFTFSNYGMHWIRQAPKKGLEWIAMIYSDSSKMFYTDTVKGRFTISRDNSKNTLYLEMNSLRSEDTAMYYCAARDYGYKGAHYYVMDAWGQGASVTVSS
VL: DIQMTQSPSFLSASVGDRVTIICKSSQNINRYLNWYQQKLGEAPKLLIYNANNLQTGIPSRFSGGGSGTDFTFTIGSLRPEDVATYFCLQHKSWPYTFGPGTKLELKR
B17: ABC814 (antibody, human IgG1, kappa, V domains shown)
VH: EVQLVESGGGLVQPGRSLKLSCVASGFTFSDYYMAWVRQAPKKGLEWVASISYEGRSTYYGDSVKGRFTISRDDAKSTLYLQMNSLRSEDTATYYCARQDLYYGHKSYWYLDFWGPGTMVTVSS
VL: DIVMTQSPTSMSISVGDRVTMNCKASQNVGSNVDWYQQKPGQSPKLLIYKTSSRSTGVPDRFTGSGSRTDFTFTITNMQAEDLAVYYCMQSNSYPFTFGAGTKLELKR
B18: ABC818 (antibody, human IgG1, kappa, V domains shown)
VH: B3 VH with M12V, R15G, P28T, N33Y, T56S, R105H, Q107P, L111F
VL: B3 VL with K13I, S22N, S77N, R107K, T108R
B19: ABC823 (antibody, human IgG1, kappa, V domains shown)
VH: EVQLVESGGGLVQPRRSLKLSCAASGFTFSDYYMAWVRQAPKKGLEWVASIGYEGSGVYYGDSVKGRFTISRDDAKSSLYLQMNSLRSEDTATYYCARQELYYGHNPYWYFDFWGPGTMVTVSS
VL: B17 VL with P40T, S55F, R68K, D70A, T72S, T76S, F96Y
B20: ABC519 (antibody, human IgG1, kappa, V domains shown)
VH: EVHLVESGGGFVRPGRSMKLSCAASGFPFSFYGMAWVLQTPTKGLEWVASISYDGSDTYYRDSVKGRFAISRDNAKNTLYLQMESLRSEDTATFYCAKTSGYGSFDYWGQGTLVTVSS
VL: DIVMTQSPVSLPVSFGGQASISCRSSRSLVHRNGDTYLHWYLQKPGQSPQLLIYRVSNRFAGVPDRFSGSGSGTDFTLKISRVESEDLGLYYCLQGTHLPPTFGSGTKLEIKR

How the values were obtained:
mCCR8 = biological target: T1, mCCR8; experiment: flow cytometry, 293T cells with mCCR8
Experimental: (§1) Binding specificity of the anti-CCR8 antibodies (mAbs) was tested by FACS using several cell lines. […] The binding titration of the anti-CCR8 antibodies to CCR8 transfectants was performed by serial dilution of antibodies. The diluted antibody (50 μl) in flow cytometry buffer (PBS, 0.5% BSA, 1 mM EDTA) was incubated with cells (50 μl) at a concentration of 2 million cells/ml on ice for 30 min. After two washes with flow cytometry buffer, bound antibody was detected with Alexa647-labeled F(ab′)2 fragment goat anti-human IgG (Jackson ImmunoResearch #709-606-149) (1:500 dilution) for 20 minutes on ice. The fluorescence was measured on a Cytek Aurora cytometer, after two washes with flow cytometry buffer. The data were analyzed with GraphPad Prism 8.0 software to determine EC50 values.

[1] = biological target: T2, Human CCR8 (C-C chemokine receptor type 8) (human, UniProt P51685 1-355); experiment: flow cytometry, 293T cells overexpressing human CCR8
T2 construct: overexpressed on HEK293T (293T-hCCR8), Jurkat-hCCR8 and CHEM1-CCR8 cells; also called hCCR8
Experimental: as §1

cynomolgus macaque CCR8 = biological target: T3, cynomolgus macaque CCR8 (cynomolgus macaque, UniProt G7NYJ2 1-355); experiment: flow cytometry, 293T cells overexpressing cynomolgus CCR8
T3 construct: whole, on cells; Overexpressed on 293T cells (293T-cCCR8) and Jurkat cells (Jurkat-cynoCCR8); also called cCCR8; cyno CCR8
Experimental: as §1

[2] = biological target: T2, Human CCR8 (C-C chemokine receptor type …); experiment: flow cytometry, Hut78 cells (endogenous human CCR8)
Experimental: as §1

[3] = biological target: T2, Human CCR8 (C-C chemokine receptor type …); experiment: flow cytometry on cells carrying human CCR8

T3 sequence (G7NYJ2 entry or part of it): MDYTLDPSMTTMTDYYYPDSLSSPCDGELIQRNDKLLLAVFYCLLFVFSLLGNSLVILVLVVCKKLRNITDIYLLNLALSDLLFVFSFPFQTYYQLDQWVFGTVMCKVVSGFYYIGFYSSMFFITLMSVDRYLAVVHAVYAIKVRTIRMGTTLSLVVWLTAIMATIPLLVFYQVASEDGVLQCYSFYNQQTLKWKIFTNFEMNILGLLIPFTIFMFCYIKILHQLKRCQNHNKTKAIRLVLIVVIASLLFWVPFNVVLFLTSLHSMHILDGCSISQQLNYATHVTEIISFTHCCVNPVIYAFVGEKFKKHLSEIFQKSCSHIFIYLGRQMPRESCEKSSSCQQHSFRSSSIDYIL
T2 sequence (P51685 whole entry): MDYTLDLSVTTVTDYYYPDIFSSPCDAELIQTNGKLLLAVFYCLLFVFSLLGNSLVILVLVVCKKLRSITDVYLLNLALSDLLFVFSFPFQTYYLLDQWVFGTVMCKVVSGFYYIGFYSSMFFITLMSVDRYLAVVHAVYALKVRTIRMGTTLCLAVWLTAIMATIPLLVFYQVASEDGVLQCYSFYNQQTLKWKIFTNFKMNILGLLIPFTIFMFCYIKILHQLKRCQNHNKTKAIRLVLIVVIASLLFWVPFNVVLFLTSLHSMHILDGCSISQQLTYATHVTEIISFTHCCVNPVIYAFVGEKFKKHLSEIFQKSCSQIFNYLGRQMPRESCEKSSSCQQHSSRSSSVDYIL

Row | Binder | binding result (mCCR8) | EC50 [1] [nM] | EC50 (cynomolgus macaque CCR8) [nM] | binding result [3] | further results
1 | B1 | no binding | 1.74 | 2.14 |  | 
2 | B2 | no binding | 1.44 | 0.554 |  | 
3 | B3 | no binding | 8.51 | 7.11 |  | 
4 | B4 | no binding | 6.47 | 6.47 |  | 
5 | B5 |  |  |  |  | EC50 (mCCR8): 0.133 nM; binding result [2]: no binding; binding result (cynomolgus macaque CCR8): no binding
6 | B6 | no binding | 0.103 | 0.09 |  | EC50 [2]: 19.4 nM
7 | B7 |  |  |  |  | EC50 (mCCR8): 6.74 nM; binding result [1]: no binding; binding result (cynomolgus macaque CCR8): no binding
8 | B8 |  |  |  | binds | 
9 | B9 |  |  |  | binds | 
10 | B10 |  |  |  | binds | 
11 | B11 |  |  |  | binds | 
12 | B12 |  |  |  | binds | 
13 | B13 |  |  |  | binds | 
14 | B14 |  |  |  | binds | 
15 | B15 |  |  |  | binds | 
16 | B16 | no binding |  | 0.26 |  | binding result [2]: no binding
17 | B17 | no binding | 0.0828 | 0.101 |  | EC50 [2]: 11.6 nM
18 | B18 | no binding | 0.744 | 0.537 |  | 
19 | B19 | no binding | 1.51 | 0.884 |  | 
20 | B20 | no binding |  | 0.25 |  | binding result [2]: no binding
